Reference: PMC2847151 (2009)

Assays:
[1] = target: Abl SH3 (Homo sapiens, UniProt P00519); assay: fluorescence titration
[2] = target: T1, Lck SH3 (Homo sapiens, UniProt P06239); assay: fluorescence titration
T1 chain: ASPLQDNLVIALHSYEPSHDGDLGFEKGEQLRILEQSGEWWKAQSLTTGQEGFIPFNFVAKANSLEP

Abl SH3, sequence (P00519 58-124): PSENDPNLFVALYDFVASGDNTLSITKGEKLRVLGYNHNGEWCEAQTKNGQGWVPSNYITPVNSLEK

Kd [1]: 2370 nM
Kd [2]: 33.5 µM
B1: MED25 (peptide)
chain: Ac-QLPPGPPGAPKPPPAS-NH2
